The source of these data is patent US5973110A, “Cytotoxic T-lymphocyte antigen as cysteine protease inhibitor” (Bayer Corporation, priority 1995, dated 1999).

The test system of assay [1] is cartilage proteoglycan degradation. To be noted: at 100 uM concentrations; cited from earlier work.
Assay [2] addresses T1, human liver Cathepsin L (Homo sapiens, UniProt P07711).
Assay [3] addresses T1, human liver Cathepsin L. The source holds these as a separate data set.
In assay [4] the test system is articular cartilage explants from calf knee joints. The assay can be described thus: Micro organ culture assay (MOCA): IL-1 induced proteoglycan release from articular cartilage explants. To be noted: IL-1 induced degradation; p117 10 uM (best concentration). Format: cell-based. An excerpt: The assay system used for testing the peptides for inhibitory activity of proteoglycan release is a micro organ culture assay (MOCA). Papain; cetyl pyridinium chloride and chondroitin sulfate type C was purchased from Sigma Chemical Co. (St. Louis, Mo.). Interleukin 1 alpha was purchased from Collaborative Research. ABCase, chrondroitinase, ABC lyase, and keratanase were obtained from ICI. Na ^35 SO4 was purchased from NEN.
Articular cartilage explants from calf knee joints were maintained in culture in DMEM medium containing 20 uCi/ml Na ^35 SO4 for 48 hours for the incorporation of label into newly synthesized proteoglycan (PG). The radiolabelled medium was then removed, the radiolabelled explants washed 3×30 ml cold DMEM and placed into a 96 well plate with or without IL-1 (Interleukin-1 alpha, 50 U/ml) and various concentrations of p117. The explants were incubated first for 24 hours in the presence of IL-1 in order to ensure initiation of IL-1 induced auto-catalysis prior to the addition of various metalloprotease inhibitors for an additional 72 hours.
The newly synthesized radiolabelled proteoglycans released during the cultivation period were subjected to enzymatic digestion with papain. […] The filter was dried and counted after addition of 10 mls of scintillation cocktail (scintillant).

The target in assay [5] is T1, human liver Cathepsin L. The assay can be described thus: Cathepsin L assay (fluorescence, Z-Phe-Arg-AMC hydrolysis). Format: biochemical. On the set-up: from tissue; b54 says 'human kidney cell cathepsins'.
Target sequence in this assay (P07711 114-288 limits assumed): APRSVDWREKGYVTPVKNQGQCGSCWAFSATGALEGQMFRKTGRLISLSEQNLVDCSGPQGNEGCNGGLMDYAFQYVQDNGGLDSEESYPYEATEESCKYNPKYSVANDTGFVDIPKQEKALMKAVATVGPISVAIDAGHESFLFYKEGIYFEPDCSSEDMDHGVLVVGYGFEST
Target sequence in this assay (P07711 292-333 limits assumed): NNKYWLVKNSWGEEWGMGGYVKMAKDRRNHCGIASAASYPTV
Method: A fluorescence based assay was set up according to Barrett and Kirschke (Barrett et al., 1981, Meth. in Enz., 80:535).
After an incubation period of 6 minutes at room temperature, 1500 μl of 0.1% Brij 35 was added. The substrate Z-Phe-Arg-AMC (AMC is aminomethyl-coumarin) was added at a final concentration of either 2.5 μM or 5.0 μM.
The fluorescence of the free aminomethyl-coumarin was measured in an SLM 4800s fluorimeter by excitation at 370 nm and emission at 432 nm over a six minute time period. […] In order to calculate the velocities, a linear least squares analysis was performed over the initial linear part of the data. […]
These peptides were tested for inhibition of Cathepsin L activity using the assays described previously. Briefly, Cathepsin L (19 pM final as determined by active site titration using E-64, Barret & Kirschke, 1991) was added to 750 uL of assay buffer consisting of 340 nM sodium acetate--60 mM acetic acid (pH 5.5), 4 mM disodium EDTA, and 8 mM DTT. […] The fluorescence of the free aminomethylcoumarin was measured in an SLM 4800s fluorimeter at excitation of 370 nm and an emission at 432 nm over a 6 minute time period. Fluorescence was converted to uM AMC released by using a standard curve generated by plotting uM AMC vs. fluorescence, and plotted vs. time. […]
A further assay concerns cartilage degradation. The following applies: rabbits, IL-1 injected into joint capsule; cited from earlier work.
In assay [6] the target is T1, human liver Cathepsin L. This is another data set of the same source.

No end group written: not given here.

Take `CC(C)CCNC(=O)[C@H](CC(C)C)NC(=O)[C@H]1O[C@@H]1C(=O)O` [Ep475]: the “inhibition of IL-1 stimulated cartilage proteoglycan degradation (in words)” value in assay [1] was “did not work”.

Regarding `CC(C)C[C@H](NC(=O)[C@H]1O[C@@H]1C(=O)O)C(=O)NCCCCN=C(N)N` (relative stereo) [E64, trans-epoxysuccinyl-L-leucylamido-(4-guanido)butane], in assay [1], the “inhibition of IL-1 stimulated cartilage proteoglycan degradation (in words)” value is reported as “did not work”.

On to “recombinant (murine) CTLA-2β, monomeric form”, for which the i.c. 50 in Cathepsin L Assay with human liver Cathepsin L [2] is 18.2 nM. The molecule further registered an inhibition of hydrolysis of Z-Phe-Arg-AMC by Cathepsin L (fluorescence) in the assay with human liver Cathepsin L [3] of 60%. “recombinant (murine) CTLA-2β, dimeric form”: in the assay with human liver Cathepsin L [2], the i.c. 50 in Cathepsin L Assay amounted to 1.1 nM. Consider YSLDEERHRRLMWEENKKKIEAH [p117], for which the “% inhibition of proteoglycan release” value in assay [4] is “about 30%”. On human liver Cathepsin L [5] (Cathepsin L 19 pM, 5.0 uM Z-Phe-Arg-NMec(AMC), Dixon plot V-/V+ vs. peptide concentration, read-out: i.c. 50 (synthetic peptides, Cathepsin L)), the IC50 stood at 5.3 µM. Also, on human liver Cathepsin L [5] (summary in Example 7), the “inhibitory activity of the peptides (in words)” value is “best activity”.

B1: PN-1: large serine protease inhibitor PN-1 (43 KD) (protein, UniProt P07093 20-398, looked up)
Glia-derived nexin: SHFNPLSLEELGSNTGIQVFNQIVKSRPHDNIVISPHGIASVLGMLQLGADGRTKKQLAMVMRYGVNGVGKILKKINKAIVSKKNKDIVTVANAVFVKNASEIEVPFVTRNKDVFQCEVRNVNFEDPASACDSINAWVKNETRDMIDNLLSPDLIDGVLTRLVLVNAVYFKGLWKSRFQPENTKKRTFVAADGKSYQVPMLAQLSVFRCGSTSAPNDLWYNFIELPYHGESISMLIALPTESSTPLSAIIPHISTKTIDSWMSIMVPKRVQVILPKFTAVAQTDLKEPLKVLGITDMFDSSKANFAKITTGSENLHVSHILQKAKIEVSEDGTKASAATTAILIARSSPPWFIVDRPFLFFIRHNPTGAVLFMGQINKP
In the case of B1, the “effect on IL-1 induced cartilage degradation (in words)” value in the assay on cartilage degradation was “can ameliorate this degradation”. The molecule CRGEMAPDLPEYEDLG [p092] gave an i.c. 50 with human liver Cathepsin L [6] of 41 µM. Still for that read-out and setting: to YSLDEERHRRLMWEENKKKIEAH [p117] belongs 5.3 µM. ENKKKIEAHNADYERGKTSFC [p089] registered an inhibition of hydrolysis of Z-Phe-Arg-NMec(AMC) by Cathepsin L (fluorescence) (% inhibition at 10 uM) in the assay with human liver Cathepsin L [6] of 25.
